Results published in patent publication US20150064134A1.

Tests used:
Experiment in all cases: cell-based or functional assay
[1] = target: BRK(h) (human) (UniProt Q13882)
[2] = target: EphB3(h) (human) (UniProt P54753)
[3] = target: T1, Flt1(h) (human) (UniProt P17948)
T1 sequence (looked up): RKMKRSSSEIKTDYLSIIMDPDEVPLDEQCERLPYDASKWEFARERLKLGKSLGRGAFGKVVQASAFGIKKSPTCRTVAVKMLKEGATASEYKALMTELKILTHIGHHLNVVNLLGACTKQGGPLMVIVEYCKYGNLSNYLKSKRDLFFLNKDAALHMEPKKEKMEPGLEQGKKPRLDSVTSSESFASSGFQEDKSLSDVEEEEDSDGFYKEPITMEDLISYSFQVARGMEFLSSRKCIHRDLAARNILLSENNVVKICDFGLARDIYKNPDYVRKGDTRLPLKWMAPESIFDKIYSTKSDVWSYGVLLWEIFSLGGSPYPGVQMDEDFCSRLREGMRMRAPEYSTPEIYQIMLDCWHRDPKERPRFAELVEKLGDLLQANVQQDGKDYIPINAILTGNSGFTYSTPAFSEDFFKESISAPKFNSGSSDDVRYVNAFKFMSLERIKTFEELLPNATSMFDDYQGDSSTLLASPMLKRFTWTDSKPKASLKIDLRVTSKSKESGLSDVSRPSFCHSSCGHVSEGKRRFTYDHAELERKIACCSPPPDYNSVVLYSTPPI

[4] = target: T2, LKB1(h) (human) (UniProt Q15831)
T2 sequence (looked up): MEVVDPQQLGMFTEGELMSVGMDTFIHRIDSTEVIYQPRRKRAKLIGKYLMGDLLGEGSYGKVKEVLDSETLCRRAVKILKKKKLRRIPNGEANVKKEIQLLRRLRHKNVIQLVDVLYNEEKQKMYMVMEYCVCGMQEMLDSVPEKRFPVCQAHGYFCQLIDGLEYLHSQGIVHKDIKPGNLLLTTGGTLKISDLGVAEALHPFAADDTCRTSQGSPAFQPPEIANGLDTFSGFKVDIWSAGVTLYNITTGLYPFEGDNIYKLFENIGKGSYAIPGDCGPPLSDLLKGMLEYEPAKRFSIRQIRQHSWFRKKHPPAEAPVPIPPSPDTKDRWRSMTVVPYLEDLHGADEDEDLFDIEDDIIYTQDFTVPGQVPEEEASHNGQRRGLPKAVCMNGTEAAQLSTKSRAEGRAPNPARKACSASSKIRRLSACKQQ

[5] = target: MEK1(h) (human) (UniProt Q02750)
[6] = target: T3, PrKX(h) (human) (UniProt P51817)
T3 sequence (looked up): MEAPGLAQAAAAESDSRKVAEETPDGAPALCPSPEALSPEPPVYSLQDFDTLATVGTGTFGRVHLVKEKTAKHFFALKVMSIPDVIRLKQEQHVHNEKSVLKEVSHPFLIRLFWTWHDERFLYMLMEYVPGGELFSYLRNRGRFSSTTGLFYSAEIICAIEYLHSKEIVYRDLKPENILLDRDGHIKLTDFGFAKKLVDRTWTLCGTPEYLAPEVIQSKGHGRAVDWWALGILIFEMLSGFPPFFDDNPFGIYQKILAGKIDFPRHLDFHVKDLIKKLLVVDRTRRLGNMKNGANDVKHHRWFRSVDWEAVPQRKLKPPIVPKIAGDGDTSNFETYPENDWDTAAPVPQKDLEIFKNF

[7] = target: Rsk3(h) (human) (UniProt Q15349)
[8] = target: WNK3(h) (human) (UniProt Q9BYP7)
[9] = target: cKit(V654A)(h) (human) (UniProt P10721)
[10] = target: T4, eEF-2K(h) (human) (UniProt O00418)
T4 sequence (looked up): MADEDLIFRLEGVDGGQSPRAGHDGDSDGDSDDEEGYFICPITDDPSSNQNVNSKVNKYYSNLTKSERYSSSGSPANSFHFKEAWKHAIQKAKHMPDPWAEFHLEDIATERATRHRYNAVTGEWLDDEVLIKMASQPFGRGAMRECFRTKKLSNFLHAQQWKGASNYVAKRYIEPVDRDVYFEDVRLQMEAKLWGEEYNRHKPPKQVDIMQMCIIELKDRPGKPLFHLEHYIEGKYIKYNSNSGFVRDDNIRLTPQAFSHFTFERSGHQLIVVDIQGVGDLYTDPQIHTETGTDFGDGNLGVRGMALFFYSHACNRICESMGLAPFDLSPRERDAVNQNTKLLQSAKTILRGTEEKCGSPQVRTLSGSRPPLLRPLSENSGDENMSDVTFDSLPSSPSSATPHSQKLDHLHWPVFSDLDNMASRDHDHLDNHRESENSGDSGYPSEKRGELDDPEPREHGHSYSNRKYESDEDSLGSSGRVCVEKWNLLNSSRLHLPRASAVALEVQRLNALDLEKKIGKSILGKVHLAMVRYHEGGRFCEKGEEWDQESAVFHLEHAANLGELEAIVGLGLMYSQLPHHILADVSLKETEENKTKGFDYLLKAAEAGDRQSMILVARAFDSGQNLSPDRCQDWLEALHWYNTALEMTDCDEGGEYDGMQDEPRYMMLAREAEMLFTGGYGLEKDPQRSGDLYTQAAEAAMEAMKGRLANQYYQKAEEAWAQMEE

Chain of cKit(V654A)(h) (human) (P10721 544-976 V654A): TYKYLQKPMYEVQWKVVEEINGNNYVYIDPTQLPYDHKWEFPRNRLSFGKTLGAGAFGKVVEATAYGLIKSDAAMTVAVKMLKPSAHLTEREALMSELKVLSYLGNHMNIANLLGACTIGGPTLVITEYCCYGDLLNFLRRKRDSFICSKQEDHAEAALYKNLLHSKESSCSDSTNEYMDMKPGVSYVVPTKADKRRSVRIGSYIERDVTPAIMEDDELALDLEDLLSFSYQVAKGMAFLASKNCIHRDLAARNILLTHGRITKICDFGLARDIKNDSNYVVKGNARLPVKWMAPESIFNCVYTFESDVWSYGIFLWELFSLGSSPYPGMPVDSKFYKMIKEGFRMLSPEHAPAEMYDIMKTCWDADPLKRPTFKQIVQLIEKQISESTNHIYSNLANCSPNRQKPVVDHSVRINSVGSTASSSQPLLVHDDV
Chain of Rsk3(h) (human) (Q15349 whole entry): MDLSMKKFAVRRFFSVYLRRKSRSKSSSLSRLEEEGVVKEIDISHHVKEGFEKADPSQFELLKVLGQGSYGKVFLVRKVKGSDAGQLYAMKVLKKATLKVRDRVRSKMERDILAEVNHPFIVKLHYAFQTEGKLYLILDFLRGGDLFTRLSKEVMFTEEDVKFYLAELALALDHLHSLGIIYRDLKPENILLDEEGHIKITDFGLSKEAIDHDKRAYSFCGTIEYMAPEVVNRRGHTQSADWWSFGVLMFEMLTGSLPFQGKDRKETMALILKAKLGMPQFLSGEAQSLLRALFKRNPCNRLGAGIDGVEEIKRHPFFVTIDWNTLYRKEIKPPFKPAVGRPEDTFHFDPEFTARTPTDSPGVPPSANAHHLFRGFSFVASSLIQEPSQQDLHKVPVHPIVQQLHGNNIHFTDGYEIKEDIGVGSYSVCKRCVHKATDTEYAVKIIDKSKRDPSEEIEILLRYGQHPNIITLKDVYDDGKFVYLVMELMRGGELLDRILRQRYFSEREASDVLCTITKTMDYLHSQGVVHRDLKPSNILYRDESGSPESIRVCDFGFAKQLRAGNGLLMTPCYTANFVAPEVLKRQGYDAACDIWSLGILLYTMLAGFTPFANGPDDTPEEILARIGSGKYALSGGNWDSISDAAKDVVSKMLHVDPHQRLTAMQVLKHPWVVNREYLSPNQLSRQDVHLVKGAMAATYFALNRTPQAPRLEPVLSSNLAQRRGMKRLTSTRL
Chain of EphB3(h) (human) (P54753 581-998 limits assumed): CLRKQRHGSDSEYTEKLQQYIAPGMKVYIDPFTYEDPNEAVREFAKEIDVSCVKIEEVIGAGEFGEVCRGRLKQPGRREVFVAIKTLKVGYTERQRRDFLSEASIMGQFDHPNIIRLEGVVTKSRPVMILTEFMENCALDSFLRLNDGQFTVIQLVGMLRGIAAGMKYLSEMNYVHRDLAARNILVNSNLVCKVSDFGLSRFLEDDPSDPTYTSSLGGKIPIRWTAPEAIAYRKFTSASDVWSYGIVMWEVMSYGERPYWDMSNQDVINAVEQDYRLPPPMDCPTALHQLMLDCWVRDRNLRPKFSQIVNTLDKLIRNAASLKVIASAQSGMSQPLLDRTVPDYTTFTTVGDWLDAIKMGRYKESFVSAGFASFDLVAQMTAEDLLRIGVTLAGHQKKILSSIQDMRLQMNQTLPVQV

Q: With MMI-0400 (peptide) as the substance, how does the % activity at 100 µM [1] read?
A: 18%

Q: And the % activity at 100 µM [2]?
A: 47%

Q: And the % activity at 100 µM [3]?
A: 48%

Q: And the % activity at 100 µM [4]?
A: 89%

Q: What about the % activity at 100 µM [5] of the same substance?
A: 77%

Q: And the % activity at 100 µM [6]?
A: 76%

Q: What about the % activity at 100 µM [7] of the same substance?
A: 71%

Q: And the % activity at 100 µM [8]?
A: 74%

Q: What about the % activity at 100 µM [9] of the same substance?
A: 150%

Q: What about the % activity at 100 µM [10] of the same substance?
A: 43%

Q: With MMI-0300 (peptide) as the substance, how does the % activity at 100 µM [1] read?
A: 35%

Q: And the % activity at 100 µM [2]?
A: 62%

Q: And the % activity at 100 µM [3]?
A: 69%

Q: And the % activity at 100 µM [4]?
A: 101%

Q: What about the % activity at 100 µM [5] of the same substance?
A: 77%

Q: And the % activity at 100 µM [6]?
A: 61%

Q: What about the % activity at 100 µM [7] of the same substance?
A: 76%

Q: What about the % activity at 100 µM [8] of the same substance?
A: 77%

Q: What about the % activity at 100 µM [9] of the same substance?
A: 134%

Q: What about the % activity at 100 µM [10] of the same substance?
A: 91%

Q: MMI-0500 (peptide) was tested. Which % activity at 100 µM [1] did it give?
A: 41%

Q: And the % activity at 100 µM [2]?
A: 79%

Q: And the % activity at 100 µM [3]?
A: 27%

Q: And the % activity at 100 µM [4]?
A: 51%

Q: What about the % activity at 100 µM [5] of the same substance?
A: 21%

Q: What about the % activity at 100 µM [6] of the same substance?
A: 57%

Q: What about the % activity at 100 µM [7] of the same substance?
A: 23%

Q: What about the % activity at 100 µM [8] of the same substance?
A: 9%

Q: And the % activity at 100 µM [9]?
A: 223%

Q: What about the % activity at 100 µM [10] of the same substance?
A: 43%
